Measurements: patent US8008452B2, “Phosphorylated Ndr kinase” (Novartis Forschungesstiftung, Zweigniederlassung Friedrich …, priority 2002, dated 2011)

Experiments:
[1] = tested on: GST-NDR1; assay: GST-NDR1 in vitro autophosphorylation, incorporated 32P by Cerenkov counting; assay type: biochemical, human; conditions: for amount of incorporated 32P (autophosphorylation), −S100B / amount of incorporated 32P (autophosphorylation), +S100B: GST-NDR1 variant; for amount of incorporated 32P (autophosphorylation), −S100B: 1 microgram, autophosphorylated 2 hours without further additions, pmol ATP/pmol GST-NDR1; for amount of incorporated 32P (autophosphorylation), +S100B: 2 hours in the presence of 1 mM CaCl2 and 10 microM bovine S100B, in pmol ATP/pmol GST-NDR1; for autophosphorylation rate of GST-NDR1 mutant (in words): compared with wild type
Experimental: BL21-DE3-pRep4 E. coli strain was transformed with the pGEX-2T_NDR1 wild type or mutant plasmids. BL21-DE3 is a protease-deficient E. coli strain and pRep4 is a Laclq repressor-bearing plasmid both available commercially. Optionally, if desired, an E. coli strain comprising GroESL can be used, which expresses a chaperone protein that stabilizes the kinase. Mid-logarithmic phase cells were induced with 0.5 mM isopropyl beta-D-thiogalactopyranoside (IPTG) for 4 hours at 30° C. Bacteria were lysed using a French press in the presence of 1 mg/ml lysosyme, and the fusion proteins were purified on glutathione-agarose (Amersham Pharmacia Biotech) as described by the manufacturers. Recombinant proteins were assayed for kinase activity as described below and autophosphorylation was determined after SDS-PAGE separation either by Cerenkov counting or by exposure to a PhosphorImager screen followed by analysis with ImageQuant software (Molecular Dynamics).
In brief, 1 microgram of purified GST-NDR1 (in solution ˜0.5 microM) wild type, kinase dead (K118A), and alanine mutants of phosphorylation residues Thr74, Ser281, and Thr444 were autophosphorylated for 2 hours in vitro without further additions or in the presence of 1 mM CaCl2 and 10 microM bovine S100B. Proteins were visualized on SDS gels using Coomassie Blue R-350 stained SDS-PAGE gel, and [gamma-^32P]ATP-labelled proteins were visualized by autoradiography of the gels developed on a Phosphorimager screen. The amount of incorporated ^32P was quantified by Cerenkov counting.

[2] = tested on: GST-NDR1; assay: GST-NDR1 kinase assay (peptide kinase assay); assay type: biochemical, human; design: Specific activity of GST-NDR1 variants, CTRL / Specific activity of GST-NDR1 variants, −S100B / Specific activity of GST-NDR1 variants, +S100B: unit not given here; conditions: for Specific activity of GST-NDR1 variants, −S100B: autophosphorylated 2 h in the absence of CaCl2 and S100B; for Specific activity of GST-NDR1 variants, +S100B: autophosphorylated 2 h in the presence of 1 mM CaCl2 and 10 mM bovine S100B; for Specific activity of GST-NDR1 variants, CTRL: left without further treatment
Experimental: 1 microgram of purified recombinant GST-NDR1 wild type and mutants (without further treatment or autophosphorylated for 2 h in the presence or absence of 1 mM CaCl2 and […] (Sigma)) were assayed in 20 microliter of reaction mixture containing 20 mM Tris-HCl pH 7.5, 10 mM MgCl2, 1 mM DTT, 100 microM [gamma-^32P]ATP (˜0.5 microCi/microliter), and 1 mM NDR1 substrate peptide ([…]; SEQ ID NO:22). After 30 mins incubation at 30° C., reactions were stopped with 50 mM EDTA, and 10 microliters of reaction mixture were spotted onto 2 cm^2 squares of P81 phosphocellulose paper (Whatman). These were subsequently washed for 4×5 min and 3×20 min in 1% phosphoric acid and once in acetone before counting in a liquid scintillation counter. One unit of NDR1 activity was defined as the amount which catalyses the phosphorylation of 1 nmol peptide substrate in 1 min.
Specific activity of GST-NDR1 mutants was also measured by a peptide kinase assay as described above. For this purpose, 1 microgram of purified GST-NDR1 wild type and alanine mutants were left without further treatment or autophosphorylated for 2 h in the presence or absence of 1 mM CaCl2 and […].

[3] = tested on: HA-NDR1; assay: HA-NDR1 kinase assay on 12CA5 immunoprecipitates from transfected, treated COS-1 cells; assay type: cell-based, human; design: kinase activity of HA-NDR1 variants, −OA: unit not given here; conditions: COS-1 cells; for kinase activity of HA-NDR1 variants, +OA: 1 microM okadaic acid 1 h; for kinase activity of HA-NDR1 variants, −OA: solvent alone 1 h
Experimental: In some experiments, the cells were treated for 60 min with 1 microM okadaic acid in 0.1% N,N-dimethylformamide (DMF) (Alexis Corp.), 50 microM BAPTA-AM (1,2-bis (o-aminophenoxy) ethane-N,N,N′,N′-tetraacetic acid tetra (acetoxy-methyl)ester) in 0.1% diimethylsulfoxide (DMSO; Sigma), or 20 microM thapsigargin in 0.1% DMSO (Alomone) 24 hours after transfection.
Transfected and treated COS-1 cells were washed once with ice-cold PBS, and harvested by rubber policeman in 1 ml ice-cold PBS containing 1 mM Na3VO4 and 20 mM beta-glycerophosphate before lysis in 500 microliters of IP buffer (20 mM Tris-HCl pH 8.0, 150 mM NaCl, 1% Nonidet P-40, 10% glycerol, 1 mM Na3VO4, 20 mM beta-glycerolphosphate, 1 microM microcystin-LR, 50 mM NaF, 0.5 mM PMSF, 4 microM leupeptin, 1 mM benzamidine, and 1 tablet/10 ml IP of Complete protease inhibitors (Roche)). Lysates were centrifuged at 20 000 g for 20 min and triplicate aliquots (200 microg) of supernatant were precleared with protein A-Sepharose (Amersham Pharmacia Biotech) for 60 min and mixed subsequently for 3 h at 4° C. with 12CA5 antibody prebound to protein A-Sepharose (˜1 microg antibody bound to 2 microl beads). The beads were then washed twice with IP buffer, once for 10 min with IP buffer containing 1 M NaCl, once again for 10 min with IP buffer, and finally twice with 20 mM Tris-HCl pH 7.5 containing 4 microM leupeptin and 1 mM benzamidine. Thereafter, beads were resuspended in 30 microliters buffer containing 20 mM Tris-HCl pH 7.5, 10 mM MgCl2, 1 mM DTT, 100 microM [gamma-^32P]ATP (˜0.1 microCi/microliter), 1 microM cAMP-dependent protein kinase inhibitor peptide PKI (Bachem), 4 microM leupeptin, 1 mM benzamidine, 1 microM microcystin-LR, and 1 mM NDR1 substrate peptide ([…]). After 60 min incubation at 30° C., 15 microliters of supernatant were removed, and phosphate incorporation into the substrate peptide determined as described for GST-NDR1 above.
COS-1 cells expressing either wild type HA-NDR1 or the indicated mutants were treated for 1 h with 1 microM okadaic acid or with solvent alone. HA-tagged NDR kinase variants were then immunoprecipitated (out of 100 microgram of detergent extracts) with 12CA5 monoclonal antibody and assayed for kinase activity by a peptide kinase assay as described above.
Mock-transfected or HA-NDR1-expressing COS-1 cells were treated for 1 h with […], 50 microM BAPTA-AM, and […] or with solvent (0.1% DMF or 0.1% DMSO) alone. 12CA5 immunoprecipitates (out of 100 microgram protein extract) were then assayed using the peptide kinase assay for NDR1 kinase activity.
To test whether hMOB1 plays a role in NDR activation, myc-hMOB1 or the empty vector was cotransfected with HA-NDR1 in COS1 cells and treated with OA. 12CA5 immunoprecipitates were then assayed using the peptide kinase assay for HA-NDR kinase activity. […] GST-MOB and GST respectively was added to immunoprecipitated HA-NDR and kinase reaction were performed. The reactions were resolved on a 10% SDS PAGE and the radioactivity visualised by using a phosphoimager.

| Substance | amount of incorporated 32P (autophosphorylation), −S100B [1] | amount of incorporated 32P (autophosphorylation), +S100B [1] | autophosphorylation rate of GST-NDR1 mutant (in words) [1] | Specific activity of GST-NDR1 variants, −S100B [2] | Specific activity of GST-NDR1 variants, +S100B [2] | Specific activity of GST-NDR1 variants, CTRL [2] | kinase activity of HA-NDR1 variants, +OA [3] | kinase activity of HA-NDR1 variants, −OA [3] | kinase activity of GST-NDR1 mutant (in words) ([2]; compared with wild type) |
| --- | --- | --- | --- | --- | --- | --- | --- | --- | --- |
| T444A: NDR1 alanine mutant of phosphorylation residue Thr444; GST fusion or HA-tagged | 0.1232 | 0.2412 | significant decrease | 1.92 | 3.974 | 0.564 | 0.6019 | 0.1067 | – |
| T74A: NDR1 alanine mutant of phosphorylation residue Thr74; GST fusion or HA-tagged | 0.158 | 0.2072 | negligible reduction | 3.786 | 7.818 | 1.006 | 1.053 | 0.124 | negligible reduction |
| K118A: NDR1 kinase dead mutant, Lys 118 to alanine; GST fusion or HA-tagged | 0.0076 | 0.0064 | did not show detectable autophosphorylation | 0.272 | 0.222 | 0.158 | 0.0204 | 0.0107 | – |
